The record followed here is the domain aggregation screens of Martell et al. (2025).

The data set in a line: soluble fraction after stress (log2 fold change); higher = more stays soluble; pooled small domains, quantitative proteomics. To be noted: stress: pH 4. In outline: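 How much of each domain stays soluble after acid stress, expressed as a fold change, is used to gauge aggregation propensity. Pooled custom libraries of small domains underwent pH 4 stress before high-throughput quantitative proteomics. A higher log2 value means more of the domain stayed soluble.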
Consider “HMFGEDNLKSKEIKERVTEVAKHADDPVWIEARRKWKDENPDQNVKDYQQAYISGRIHELPWDVSYI”, for which the “soluble fraction (log2)” value is -0.0276.

On to “HMFGEKEFYQWIGKTAGEKFSGLPAAVIKSLYKYWREYNLSEEDIMGFIRQTELLPKRTPLDVELFFEK”, for which the “soluble fraction (log2)” value was -1.36.

As for “HMFGELTPDTAKRFLLTAREQEMASLIAQGLTNKEIAFRLGISEATVRTHIYNLFQKVGVQSRIELLNVLH”, the “soluble fraction (log2)” value was -0.162. “HMFGNTGETSGTGVAFTRSPVDGENKIFGEFLVNAQGEDVVAGIRTPQPISEMEQAFPEVYSKFESVAEIL”: the “soluble fraction (log2)” value is -0.305.

“HMFHDALVSFAERRVIFMKELVNRLNEARKAYYEGESIMSDKEYDNLYDKLVKMELTTGVVLPNSPTEEVG”: the “soluble fraction (log2)” value is -0.754. As for “HMFIEHSKYKLSFKYNQLGKISNVINSNNGIIMDKHFDQNITLLAKLTENTFQEIIKHFPTIIIKRL”, the “soluble fraction (log2)” value is -0.539. “HMFIEPPSLEELERRLRGRGTETDDVVDMRMRTALVELSQKMEYDYRLVNDDLDEATRQLVAYVNEIAEQ”: the “soluble fraction (log2)” value is -0.679.

“HMFIPMTDAQRHLFANKLAKLPELSEYSRGTESYEDFAIRIADMLLEPPKFRMFYPLLEQLGF”: the “soluble fraction (log2)” value was -1.19. Take “HMFIVTDQMQRVLDYITEKEKATNNDLEELLGVKSTRIYTITRKLIQHNLIIPVGKGKNKYYIL”: the “soluble fraction (log2)” value is -0.724.

Turning to “HMFKDVTVPSVINKTEAEATNMLKGLNLVVSVEYEENANKSDGIVTAQNVNANKVIKEGETVTITVNKQP”, the “soluble fraction (log2)” value amounted to 0.22. Turning to “HMFKNWMPFDEARIFVRKLKFNSHDEFRKYLKANEINIPSKPWSTYKGKGWVSIGDFLGTHR”, the “soluble fraction (log2)” value was -0.308. Regarding “HMFLPGETFDVKIVKIGEGENQGVGYLDDGTMIVIENGRDHLNELARVIVTRVLQNSAGQMIFSDYEE”, the “soluble fraction (log2)” value is -1.76.

On to “HMFLTPLEETRLAIEEVVIAKNIAIDLFPRESAIRKQQHELIYHYHLKGLTVGTEKNKRLRIFPRGY”, for which the “soluble fraction (log2)” value was -0.52.

Take “HMFLTSDEGKIMQLLEDKQRITRKDAQELLGVSQSTAGRILKTLVDNGQITQRGGGRTTRYELIK”: the “soluble fraction (log2)” value was 0.22. Then “HMFMKNTEVALAIKGKFSNQTTITSKELVLFLSDLFPELSNKTIPWKINQLKAENLIYQTGRGIYTFN”, with -0.809; and “HMFMMVAGHLQIKNEKYYMVLELRTEQGERKTKWIGTGLAVKGNKRRAEAMLEETRTKYLSPV”, with -0.177. Turning to “HMFMPGTIIKQFRELRNYSQDYVSRKMGISQNAYSKIENNITQLTVTHVKQLSSILDVPIVELLR”, the “soluble fraction (log2)” value is -0.366. As for “HMFMSDDDIRILVKEWLQSQNRKSYQLAEEIGIRPQTFYAQMSVRKISANTKKALSRIIPGL”, the “soluble fraction (log2)” value is 0.0503. On to “HMFMSKTAMVAIISEADKYGLFNIPEGLSVEKTADEIFEGHIEVDFDKLKNELDFVYKNEALEKQFQEN”, for which the “soluble fraction (log2)” value was -1. Regarding “HMFNPEQDPKQLTGRERAVADLIGLGANNAEIAIRLSMSERTVKAHLTSIFQQLNVRDRVQLALVMNQL”, the “soluble fraction (log2)” value is -0.541. With “HMFPASQPVPTDLNQIVRAGLEVFSGRLEGIDVRVSLEPELPRVNVDPEHFKRIVVNLVDNAAEAMQNS”, the “soluble fraction (log2)” value is -0.0189. As for “HMFPATAPQLKAVHAILGKQGISDELDKLARVNEWLVGLNKEPVAAISELDKHTTSGLIDHLQGELNE”, the “soluble fraction (log2)” value is -0.131. Regarding “HMFPDLSPEQQRIVDVLTKSNDLQLNQLSVKTGIPIGDITSILFQMEMMGVVKPMAGGNYHLL”, the “soluble fraction (log2)” value is -0.0768.

With “HMFPDLTEDEQLIVDVLQRTGDLQINSLIVEANIPVNKMSEILFELEMKGVIRTLAGGVYQLL”, the “soluble fraction (log2)” value is -1.84. As for “HMFPDRLRELRKGRNITLETLAEEMNKHLEPGQKPNTAAQIGNWERGDRSPSYIEVRKLADFFNVSMDFL”, the “soluble fraction (log2)” value is -0.512. For “HMFPELNAEETQVVQLLQKQTEGMQVNSLVVESNIPITRMSGILFELELKGIIRNYAGGVYKL”, the “soluble fraction (log2)” value is -0.951.

As for “HMFPELSEEAKVIVDALSKENDQQLNVLIANTGMAVGTMQAKLFELEMQGVVKPLAGSVYHLM”, the “soluble fraction (log2)” value was found to be 0.22. Then “HMFPELTDDEQLIVSTLAKTNDMQINMLAVRTGIPVQRMSALLFSLEMKGVVKMYAGGTYHLL”, with -0.0499; and “HMFPNQLLISRLSNQLSASERFAAVSSIAQLKNIDYDVLHVLVHTMNSDPNSNVRLAALEALSR”, with -0.313. Regarding “HMFPQQGEIRQGVIASITPDQILVNVGTKSEGIISGKELEAISKSERDSLNVDQKIAVYILDPEDSNG”, the “soluble fraction (log2)” value is -0.391.

On to “HMFQNPSQVVTTRVGELRAAIPTAQQGRITMGVAVVEDANSVRSVLISTSEPRGYLRPGVTLGPGETMV”, for which the “soluble fraction (log2)” value was 0.106. As to “HMFQPFFENLRKASIPVSLREYLTFLEGMKKGLVTYDIEAFYFLARAAMVKDERNIDKFDRAFSATFKG”, the “soluble fraction (log2)” value was determined as 0.0456. Turning to “HMFQTAADVAYRIISQKILDGEFPPGMKLSRRKMAEVTSVSVIPVIEALKKLEEDGLVESKPQWGSFVTI”, the “soluble fraction (log2)” value was -0.246.

Take “HMFQYEKIKDYILTGLEEGTWQAGDKIPSEAELVMSLNVSRMTVNRAVRELANSGLLVRIPGAGTFVATE”: the “soluble fraction (log2)” value was -0.886. Consider “HMFSIDRNIRRLRKEAGLTQEELAQKLFVTRQTISLWELGKVHPDLETLQKLAEQFQVDLLQVLYGPE”, for which the “soluble fraction (log2)” value was -2.41. Regarding “HMFSLDMDRLVRPGFMASGNVTFSDGVTGKWALDQMGRLALETAQKGYQPSPADVQAFQRELQQQLQRQG”, the “soluble fraction (log2)” value is -0.178.

With “HMFSPTKLKEKRESQGLSQSQLASSLGISRASYFNWESGKTKPNQNNLSKLSEILNVDPRYF”, the “soluble fraction (log2)” value amounted to 0.0274.

In the case of “HMFSSVSVPAELSNQRFDKVVAELTPDLSRSKIKQLILLGKVLLNGEVTPPKQKVETGDEIEIFYTRQIE”, the “soluble fraction (log2)” value was -0.23. Turning to “HMFTLDIGTIIRNRRLELNLTLEEIGNAVGVSKSTVQKWENGFISNMKRDKISALAKVLNINPVTLITGEY”, the “soluble fraction (log2)” value was -0.711. For the sequence “HMFTLNEIIGQKIRNARISAGLTLDELSKMTGISAAQLSSLETGYRRANIDTLYAIAKAIGIDVSNLLKY”, the “soluble fraction (log2)” value was -0.626. Then “HMFTRFTVAQDGWTIGGFTAKEMAVSTAKQHAVDTGKPVTVVAHVAGGGSREAIFNSDGTNDKIWN”, with 0.157; and “HMFTYEETIGKSADVYLTIPALKAGKGKIIISVRGSVHELDAMTNNAEKISTGAVVKIVRIEHGNILLVEN”, with -0.44. “HMFVEKDSIINKGNNSYNFVITDNNNKVLVEYNGLLPDLFKEEQGVVIEGRLKSDFIIHAFTVF”: the “soluble fraction (log2)” value is -0.462. On to “HMFVGVDMAVKEEIGKEGVAFTDLRPAGKVSIGDDVYDAVSETGAFITRGTSVRVLKYQAGQVYVVK”, for which the “soluble fraction (log2)” value is 0.354. Then “HMFVTFFHELKSAGVPVSLREYLTLMEAMDRDLASRRVEEFYYLARTALVKDERNLDKFDRVFGHVFKGL”, with -1.69; and “HMFWVESDVDFVDKTSAHNAIKENERVIGMYISYRLNGTWTTEQYVGIDTSKDNWENPDNWNIL”, with -0.381; and “HMFYLPEPLTEQELRILGMLLDGRSNPEIAAELFIAVGTAKWHVHNILQKLGVANRAQAIVKAHELGLT”, with -1.88. “HMFYNELMNFIVYKDSQKIGKIVNINDKLPQPVFEVLINDKKFMVPIHDDFIEKIDKEKKSIHIVIPDGLL”: the “soluble fraction (log2)” value is -1.01.

Turning to “HMFYWTDLIGLDVINTADERLGKVVGLIETGANAVLRVMGDDQVERLLPFGSAVVLTVEKEAGQIRVEW”, the “soluble fraction (log2)” value is -2.05. As for “HMGAARVTPLYNLRLREGPSTATARLDVVPRGTTLEVRAWDETGDWAQVEYRGQIGWIAAWLAEVEGEAP”, the figure is -0.739; as for “HMGADSFTGYTPIHKIDNPSDGINDGASYVVYFQKDGTDPTEFYKAVNANASTLAQLTSGTEYDLASSKKL”, -0.722. As to “HMGAEIRDKVRAALAGLNPRAAEIFVMRYFDGYGNREIARLLNTSWSTIAVTLHRTRAKLQKELK”, the “soluble fraction (log2)” value stood at 0.0552.

Consider “HMGAGDKQAQQASLMQIIALQKEGMALGLVEPKHLYHSFSKMIENAGFKDVQSFAVDPSTQQ”, for which the “soluble fraction (log2)” value is -0.199. “HMGAGEQMLPKVMFAEGDRVVHKVFGEGTVVTVDRPAQTYDIQFDKLRGTRRIMFRAELEGI”: the “soluble fraction (log2)” value is -0.922. With “HMGAGLDDLVRKSLHNAGLKADDNVVSWISGNLGSDRMVSRMELEKLVLFVAGQSEITLEDAQAVIGD”, the “soluble fraction (log2)” value is -0.374. In the case of “HMGAGLKIGNDHEYANYLEYKVSVEKYAPGAILGEIKQKGIQFNTTISKTTFYRYITDGVFLTITNADLPV”, the “soluble fraction (log2)” value is -0.138. Turning to “HMGALTGQERRAEIMNILRQSTMPLSGAALGKQLGVSRQVVVQDIALLRQSGEEIYATNRGYVTG”, the “soluble fraction (log2)” value is no less than 0.43. In the case of “HMGAQPLIEPLSERELEVLALIAEGLTNAEIGRRLFIATGTVKRHVNTIYGKLDVHGRIEAIARARDLHLI”, the “soluble fraction (log2)” value is -0.66. Then “HMGAQRDFELQLIDVIRQNPGLTYKAYGEKLSVSQATVKRLVAKLKETGSIRREGSQRKGTWIITDD”, with 0.252; and “HMGARWPIQDRPLTATEAAAVRRMYAGGLPHGRSKNSVITEVWGDLSNKPKRLDWLNQALEGGA”, with 0.357. For “HMGASGVEVPDVAGMSTAQAVSSLEQKGFVVNRTESYDAGVEKGNVISQSPEGGTKAPNGSAVTIRISQGA”, the “soluble fraction (log2)” value was 0.081.

“HMGASIQITVNNTPVMLKNKTHYTLVDVLDFYPFDLSKMGGTELYTAINGVKSGFTDPVHANDSIEIYWI”: the “soluble fraction (log2)” value amounted to 0.196. Take “HMGASSLVGRSARVLQAVTDSDGRIKLAGETWSARLAAGATSTVGPGEEVRVIAIHGATAIVAPV”: the “soluble fraction (log2)” value was 0.0834. As for “HMGASVGEVESVKTASEIYTAAAGKIVAVNDAVAKDPSLVNSDPYGNGWLVKLEIADLSAINA”, the “soluble fraction (log2)” value was -0.304.

On to “HMGAVDIATARQLISEIGLPIMLKAEGGGGGRGIFAIHNEAELEDAFFKASTMAQASFGNPRLFVEKF”, for which the “soluble fraction (log2)” value was -0.985. Consider “HMGAVFEFIMEEEEPERIDKLLSSALPDLSRSYLQKLVKEGAVLVNKKEVKPNHKVNPGDVVEISVPEPE”, for which the “soluble fraction (log2)” value is -0.744.

“HMGAVGISQKVTSLETAVLGKNFAKDPLIDRVARLEQTVLPKQAEANASLSLPERVSKLLEKVPIAAG”: the “soluble fraction (log2)” value is 0.136. Consider “HMGAVPKNYFPAVEKGLQDSVQKGLLAGYPVVGVKAILYDGSYHPVDSSEMAFKTATIQAFKKGFMEA”, for which the “soluble fraction (log2)” value was -0.0216. As for “HMGAYIPSYAPVDINAATHTVVRGDTVYNISKRYHVSQEDFRAWNGMADNTLSIGQVVKVKPAGYTAPK”, the “soluble fraction (log2)” value was 0.22.
